Measured values as given in patent US8088387B2, “Method of targeting specific cell populations using cell-binding agent maytansinoid conjugates linked via a non-cleavable linker, said conjugates, and methods of making said conjugates” (Immunogen Inc., priority 2003, dated 2012).

How the values were obtained:
COLO 205 cells = assay: indirect FACS binding assay on COLO 205 cells; set-up: species or system human; conditions: 5×10^3 cells per well, three hour primary incubation on ice
Procedure: The inventors carried out binding and cytotoxicity studies on the huC242-non-S-containing non-cleavable linker-DM1 conjugate. First, the binding affinities of huC242 antibody, huC242-SMNP-DM3, and huC242-non-S-containing non-cleavable linker-DM1 to COLO 205 cells were compared. 5×10^3 cells per well were used, with a three hour primary incubation on ice. The huC242-non-S-containing non-cleavable linker-DM1 conjugate had about a two-fold higher apparent dissociation constant than free antibody (see FIG. 23).

SKBR3 cells = assay: continuous exposure clonogenic assay, antigen-positive cells; assay type: cell-based, human
From the text: (§1) Cell-binding agent maytansinoid conjugates of the invention can be evaluated for their ability to suppress proliferation of various cell lines in vitro. For example, cell lines such as the human colon carcinoma line COLO205, the human melanoma cell line A375, the human myeloid leukemia cell line HL60, the human breast carcinoma line SKBR3, or the human epidermoid carcinoma cell line KB can be used for the assessment of cytotoxicity of these conjugates. Cells to be evaluated can be exposed to the compounds for 24 hours and the surviving fractions of cells measured in direct assays by known methods. (See, e.g. Goldmacher et al., 135 J. Immunol. 3648-3651 (1985), and Goldmacher et al., 102 J. Cell Biol. 1312-1319 (1986).) IC50 values can then be calculated from the results of the assays.
(§2) The in vitro cytotoxicity and specificity of the huC242-SMCC-DM1 conjugate were evaluated using a continuous exposure clonogenic assay.

A375 cells = assay: continuous exposure clonogenic assay, antigen-negative cells; assay type: cell-based, human
From the text: as §1, §2

[1] = in vitro clonogenic / indirect cytotoxicity assays, cell line not given; assay type: cell-based; conditions: clonogenic (FIG. 6A-C) and indirect cytotoxicity assays (FIG. 7)
From the text: as §1

[2] = system: COLO 205 colon tumor xenografts; assay: COLO 205 colon tumor xenografts in SCID mice; assay type: in vivo
Procedure: (§3) Antibody conjugates with DM1 using the SMCC linker show anti-tumor efficacy against human tumor xenografts in mice (FIGS. 10A-C). […] In this experiment, one group of five animals bearing established subcutaneous tumors was treated with huC242-SMCC-DM1 at a dose of 150 μg/kg of conjugated DM1. Tumor sizes were measured periodically and graphed vs. time after tumor inoculation. […] In this experiment, three groups of five animals each bearing established subcutaneous SNU tumors were treated with huC242-SMCC-DM1 at doses of 15 μg/kg, 30 μg/kg, and 60 μg/kg of conjugated DM1, respectively. Tumor sizes were measured periodically and graphed vs. time after tumor inoculation.

[3] = system: SNU16 human gastric tumor xenografts; assay: SNU16 human gastric tumor xenografts in SCID mice; assay type: in vivo
Procedure: as §3

[4] = plasma clearance of conjugates; assay type: in vivo
From the text: This is in sharp contrast to plasma clearance of conjugates prepared with relatively labile disulfide bonds such as huC242-SPP-DM1. […] The non-cleavable SMCC linkage is therefore much more resistant to maytansinoid-linker cleavage activities present in vivo than the SPP-DM1 conjugate. […] This increased exposure could have substantial impact on drug efficacy in some cases.

[5] = acute toxicity test, single intravenous dose; assay type: in vivo, female CD-1 mice; conditions: single intravenous dose
Procedure: Maytansinoid conjugates prepared with non-cleavable linkers such as SMCC show an unexpected increased tolerability in mice compared with conjugates prepared with cleavable disulfide linkers. An acute toxicity test with a single intravenous dose was carried out in female CD-1 mice. A comparison of the tolerability of a huC242-SMCC-DM1 conjugate (non-cleavable) with huC242 conjugates prepared with linkers containing cleavable disulfide bonds was conducted by monitoring the death of mice (FIGS. 12A and B) and signs of toxicity (FIGS. 12C and D) over a series of four escalating doses of each conjugate. The maximum tolerated dose (MTD) for the SMCC-DM1 conjugate was greater than the highest dose tested (150 mg/kg) while the MTD for the disulfide-linked conjugate SPP-DM1 was in the range of 45-90 mg/kg.

COLO205 cells = assay: cell cycle arrest by flow cytometry; assay type: cell-based, human; conditions: 30 hours post-treatment
Procedure: Maytansinoid conjugates are thought to impart their cell destroying activity through the inhibition of microtubule polymerization. This inhibition of microtubule polymerization leads to an arrest of the cell cycle principally at G2/M. The antigen-dependent arrest of cells at G2/M by antibody-maytansinoid conjugates can be monitored by flow cytometry analysis (FIG. 13). Treatment of COLO205 cells with huC242-SPP-DM1 or huC242-SMCC-DM1 conjugate results in a complete G2/M arrest by 6-10 hours. […] The difference in the durability of the activity of these two conjugates is also reflected in percentage of dead cells at the 30 hour time point, as judged by a dye exclusion assay using trypan blue.

COLO 205 cell line = assay: cell destroying activity, antigen-positive cells (bystander study); assay type: cell-based, human; conditions: COLO 205 cultured separately
From the text: (§4) An additional aspect of conjugates prepared with non-cleavable linkers compared to conjugates that have cleavable disulfide linkers is the absence of activity toward antigen-negative cells when in close proximity to antigen-positive cells, termed here the bystander effect. That is, the conjugates prepared with non-cleavable linkers have minimal bystander activity. […] This minimal bystander activity of the non-cleavable conjugate, as measured in this in vitro assay, may contribute to the increased tolerability of conjugate with non-cleavable linkers observed in acute toxicity studies.

Namalwa cells = assay: cell destroying activity, antigen-negative cells (bystander study); assay type: cell-based
From the text: as §4

[6] = Pharmacokinetic Studies of huC242-SPP-DM1 and huC242-SCC-DM1 conjugates inCD-1 Mice Plasma clearance curves and Pharmacokinetic parameters
From the text: Table printed on a drawing sheet, FIG. 11
Title: Pharmacokinetic Studies of huC242-SPP-DM1 and huC242-SCC-DM1 conjugates inCD-1 Mice Plasma clearance curves and Pharmacokinetic parameters
First reader's note: Rows without -DM1 (huC242-SMCC, huC242-SPP) appear to be the antibody component of the same conjugates, as in the plot legend; study in CD-1 mice.

[7] = 150 μg/kg of conjugated DM1, of five animals

B1: huC242-SMCC-DM1: huC242 antibody linked to maytansinoid DM1 via the non-cleavable linker SMCC (conjugate, chains of the INN, looked up)
VH: QVQLVQSGAEVKKPGETVKISCKASDYTFTYYGMNWVKQAPGQGLKWMGWIDTTTGEPTYAQKFQGRIAFSLETSASTAYLQIKSLKSEDTATYFCARRGPYNWYFDVWGQGTTVTVSS
VL: DIVMTQSPLSVPVTPGEPVSISCRSSKSLLHSNGNTYLYWFLQRPGQSPQLLIYRMSNLVSGVPDRFSGSGSGTAFTLRISRVEAEDVGVYYCLQHLEYPFTFGPGTKLELK
modifications: DM1 via SMCC linker
Kd (COLO 205 cells): 0.552 nM
IC50 (SKBR3 cells): 0.0035 nM
fold less sensitive than SKBR3 cells (A375 cells; antigen negative A375 vs antigen positive SKBR3): about 800 fold
IC50 (A375 cells; antigen-negative A375 cells, continuous exposure clonogenic assay): > 3 nM
potency compared to conjugates prepared with disulfide-containing linkers [1]: equal or greater potency
tumor response ([2]; 150 μg/kg of conjugated DM1, five animals, established subcutaneous tumors): All five treated animals had a complete remission
animals that relapsed after complete remission [2, 7]: three
animals tumor-free until termination of the experiment [2, 7]: two
effect on mouse body weight ([2]; at conjugate doses with anti-tumor activity): no effect on mouse body weight
time some mice remained free of detectable tumors post-treatment ([2]; sentence citing FIG. 10B, text prints COLO 205): over 2 months
tumor response (sentence citing FIG. 10B) ([2]; text prints COLO 205 colon carcinoma xenografts): complete regression of tumors
antitumor effect ([3]; 15, 30 and 60 μg/kg of conjugated DM1, established subcutaneous SNU tumors): dose-dependent antitumor effect
effect on mouse body weight ([3]; at active conjugate concentration): no effect on mouse body weight
increase in overall maytansinoid exposure (AUC) compared to SPP-DM1 conjugates ([4]; area under the curve): ~5 fold
half-life for clearance ([4]; plasma, conjugate, FIG. 11): approximately 320 hours
survival / lethal toxicity ([5]; at 150 mg/kg): all mice in the SMCC-DM1 treated group survived
maximum tolerated dose (MTD) ([5]; female CD-1 mice): > 150 mg/kg
durability of cell cycle arrest (COLO205 cells): do not escape from the cell cycle block
cell destroying activity (COLO 205 cell line): potent cell destroying activity
cell destroying activity (Namalwa cells; Namalwa cultured separately): no activity
bystander cell destroying activity toward Namalwa cells (Namalwa cells; co-cultures of COLO 205 and Namalwa cells): No cell destroying activity
AUC | [6]: 40374.2 µg·h/mL
CL | [6]: 7.2 mL/day/kg
Vss | [6]: 0.1125 L/kg
t1/2 | hour [6]: 13.26 days
